Biological target: c-Met on human cells (HPAF, A549, MKN-45) (human) (UniProt P08581)
Assay: cell-based or functional assay

Sequence of c-Met on human cells (HPAF, A549, MKN-45) (human) (P08581 25-1390): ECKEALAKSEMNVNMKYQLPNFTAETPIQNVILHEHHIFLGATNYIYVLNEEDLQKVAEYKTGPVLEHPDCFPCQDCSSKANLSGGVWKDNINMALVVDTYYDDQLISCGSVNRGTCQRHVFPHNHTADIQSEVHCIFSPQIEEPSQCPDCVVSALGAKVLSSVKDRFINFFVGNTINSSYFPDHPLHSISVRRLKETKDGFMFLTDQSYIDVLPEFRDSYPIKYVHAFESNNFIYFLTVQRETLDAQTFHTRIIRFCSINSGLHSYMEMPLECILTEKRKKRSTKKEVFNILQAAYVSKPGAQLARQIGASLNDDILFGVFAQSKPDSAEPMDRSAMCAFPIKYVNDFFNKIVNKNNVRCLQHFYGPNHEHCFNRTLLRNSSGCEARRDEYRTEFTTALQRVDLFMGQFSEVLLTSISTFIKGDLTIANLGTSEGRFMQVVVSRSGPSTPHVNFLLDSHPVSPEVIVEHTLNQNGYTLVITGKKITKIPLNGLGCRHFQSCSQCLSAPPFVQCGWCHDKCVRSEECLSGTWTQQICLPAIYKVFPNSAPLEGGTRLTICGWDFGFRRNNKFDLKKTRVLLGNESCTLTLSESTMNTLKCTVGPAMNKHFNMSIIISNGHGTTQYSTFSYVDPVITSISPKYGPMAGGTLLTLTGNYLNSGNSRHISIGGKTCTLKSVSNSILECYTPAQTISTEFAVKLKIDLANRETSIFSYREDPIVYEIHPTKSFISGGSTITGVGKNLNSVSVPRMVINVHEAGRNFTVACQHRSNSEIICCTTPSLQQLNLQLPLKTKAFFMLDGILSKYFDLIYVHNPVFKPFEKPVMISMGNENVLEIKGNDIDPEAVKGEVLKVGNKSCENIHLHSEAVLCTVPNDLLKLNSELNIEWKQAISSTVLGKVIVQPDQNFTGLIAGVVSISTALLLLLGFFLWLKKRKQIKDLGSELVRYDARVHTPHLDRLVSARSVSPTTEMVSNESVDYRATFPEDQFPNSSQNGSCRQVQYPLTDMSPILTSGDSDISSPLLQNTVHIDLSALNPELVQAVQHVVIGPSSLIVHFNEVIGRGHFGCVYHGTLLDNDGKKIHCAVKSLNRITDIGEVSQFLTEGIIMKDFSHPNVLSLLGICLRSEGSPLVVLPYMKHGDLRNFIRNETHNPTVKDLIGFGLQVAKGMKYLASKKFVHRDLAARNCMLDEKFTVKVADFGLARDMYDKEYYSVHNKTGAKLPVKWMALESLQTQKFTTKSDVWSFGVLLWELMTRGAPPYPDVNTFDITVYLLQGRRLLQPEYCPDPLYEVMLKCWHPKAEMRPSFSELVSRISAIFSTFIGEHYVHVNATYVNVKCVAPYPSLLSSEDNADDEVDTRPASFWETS

## murine 5D5 antibody
  down-regulation of total c-Met on the surface of MKN-45 cells (flow cytometry): 50 to 60%
